Test results published in patent US20140050743A1, “BINDING PROTEINS TO INHIBITORS OF COAGULATION FACTORS” (BAYER INTELLECTUAL PROPERTY GMBH, priority 2011, published 2014).

Tests used:
[1] = ELISA-based activity assay of antibody variants with a competition step (300 nM rivaroxaban); type: binding; design: key: ++: Variants with an average ratio above wt plus 2×SD (standard deviation of the ratio) were considered as improved; −: variants with a ratio below wt minus 2×SD were considered as reduced in their binding affinity; +/−: All variants with a performance in between both thresholds; −−: Variants with average fluorescence counts below the negative control (non-expressing cells) plus 3×SD were considered as non-binding; settings: Table 11: single and double amino acid substitutions within M18-G08, variant to wt ratio, 1-3 independent experiments
Description: To determine the activity of the mutated antibody variants on compound from Example 1K an equilibrium or dissociation limited ELISA assay format was used. Briefly, MTP plates (Nunc Maxisorp black, 460518) were coated with 4 μg/ml streptavidin (Calbiochem, 189730) diluted in coating buffer (Candor Bioscience GmbH, 121500) and incubated over night at 4° C. After washing with PBST, plates were blocked with 100% Smart Block (Candor Bioscience GmbH, 113500) in PBST for 1 h at room temperature and the washing step was repeated. […] After washing 10 μM Amplex Red (Invitrogen, A12222) were added and incubated for 10 to 30 min at room temperature followed by measurement of the fluorescence signal.
Provided in table 11 are several examples of single and/or double amino acid substitutions introduced into the heavy and/or the light chain of M18-G08 (wt). Performance of the variants was analyzed in quadruples in the ELISA with a competition step and the FXa deinhibition assay (FXa DIA). In the ELISA, averages were calculated and overall performance of variants was evaluated by comparing the variant to wt ratio from 1-3 independent experiments. […] Variants with average fluorescence counts below the negative control (non-expressing cells) plus 3×SD were considered as non-binding and marked with “−−”. […] Variants not analyzed are marked with “nd” (not determined). […]

[2] = tested on: rivaroxaban (FXa activity); experiment: FXa de-inhibition assay (FXa DIA) of Fab variants; type: biochemical; design: key: ++: Variants with an average ratio above wt plus 2×SD were considered as improved; −−: variants with a ratio below wt minus 2×SD were considered as either reduced in their binding affinity or non-binding; +/−: All variants with a performance in between both thresholds; settings: Table 11: single and double amino acid substitutions within M18-G08; FXa deinhibition assay; variant/wt ratio, 2-3 independent experiments
Description: Then, 7 μl of 28 nM FXa (Haematologic Technologies Inc., HCXA-0060) diluted in assay buffer (20 mM Tris, Merck 1.08382.2500; 100 mM NaCl, Merck 1.06404.5000; 2.5 mM CaCl2*2H2O, Merck 1.02382.1000; 0.1% bovine serum albumin, Sigma A4503; 0.1% PEG 8000, Sigma P2139) were added and enzyme activity was recorded over time by measuring the fluorescence signal at 440 nm using a micro plate reader e.g. Tecan Infinite F500. The fluorescence signal was integrated over time and ratios of variant to wild-type were compared.
Provided in Table 9 are several examples of single and/or double amino acid substitutions introduced into the heavy and/or the light chain of M14-G07 (wt). Performance of the variants was analyzed in quadruples in the ELISA without a competition step and the FXa deinhibition assay (FXa DIA). In the ELISA, averages were calculated and normalized to the respective average expression level. Overall performance of variants was evaluated by comparing the variant to wt ratio from 2-3 independent experiments. […] Variants with average fluorescence counts below the negative control (non-expressing cells) plus 3×SD were considered as non-binding and marked with “−−” with none of the variants fulfilling this criteria. In the FXa deinhibition assay averages were calculated and overall performance of variants was evaluated by comparing the variant to wt ratio from 2-3 independent experiments. […]

B1: HC_A32Y (antibody, V domains shown)
VH: EVQLLESGGGLVQPGGSLRLSCAASGFTFSNYWMSWVRQAPGKGLEWVSYISSSGSTIYYADSVKGRFTISRDNSKNTLYLQMNSLRAEDTAVYYCAREGLWAFDYWGQGTLVTVTS
VL: QSVLTQPPSASGTPGQRVTISCTGSSSNIGAGYVVHWYQQLPGTAPKLLIYDNNKRPSGVPDRFSGSKSGTSASLAISGLRSEDEADYYCAAWDDRLNGPVFGGGTKLTVLGQ
For B1, the ELISA [1] was “++” and the FXa-DIA [2] was “++”.
